# Data as given in ChEMBL document CHEMBL2074002, “Functional analysis of a canalicular multispecific organic anion transporter cloned from rat liver” (J Biol Chem, 1998).
# Substrate: N[C@@H](CCC(=O)N[C@H](CSc1ccc([N+](=O)[O-])cc1[N+](=O)[O-])C(=O)NCC(=O)O)C(=O)O
# Assay: TP_TRANSPORTER: uptake in membrane vesicle from Mrp2-expressing NIH/3T3 cell
# Format: functional, cell membranes, NIH3T3
protein,measurement,value
ATP-binding cassette sub-family C member 2 (Rattus norvegicus) (protein) MDKFCNSTFWDLSLLESPEADLPLCFEQTVLVWIPLGFLWLLAPWQLYSVYRSRTKRSSITKFYLAKQVFVVFLLILAAIDLSLALTEDTGQATVPPVRYTNPILYLCTWLLVLAVQHSRQWCVRKNSWFLSLFWILSVLCGVFQFQTLIRALLKDSKSNMAYSYLFFVSYGFQIVLLILTAFSGPSDSTQTPSVTASFLSSITFSWYDRTVLKGYKHPLTLEDVWDIDEGFKTRSVTSKFEAAMTKDLQKARQAFQRRLQKSQRKPEATLHGLNKKQSQSQDVLVLEEAKKKSEKTTKDYPKSWLIKSLFKTFHVVILKSFILKLIHDLLVFLNPQLLKLLIGFVKSSNSYVWFGYICAILMFAVTLIQSFCLQSYFQHCFVLGMCVRTTVMSSIYKKALTLSNLARKQYTIGETVNLMSVDSQKLMDATNYMQLVWSSVIQITLSIFFLWRELGPSILAGVGVMVLLIPVNGVLATKIRNIQVQNMKNKDKRLKIMNEILSGIKILKYFAWEPSFQEQVQGIRKKELKNLLRFGQLQSLLIFILQITPILVSVVTFSVYVLVDSANVLNAEKAFTSITLFNILRFPLSMLPMVTSSILQASVSVDRLERYLGGDDLDTSAIRRVSNFDKAVKFSEASFTWDPDLEATIQDVNLDIKPGQLVAVVGTVGSGKSSLVSAMLGEMENVHGHITIQGSTAYVPQQSWIQNGTIKDNILFGSEYNEKKYQQVLKACALLPDLEILPGGDMAEIGEKGINLSGGQKQRVSLARAAYQDADIYILDDPLSAVDAHVGKHIFNKVVGPNGLLAGKTRIFVTHGIHFLPQVDEIVVLGKGTILEKGSYRDLLDKKGVFARNWKTFMKHSGPEGEATVNNDSEAEDDDDGLIPTMEEIPEDAASLAMRRENSLRRTLSRSSRSSSRRGKSLKNSLKIKNVNVLKEKEKEVEGQKLIKKEFVETGKVKFSIYLKYLQAVGWWSILFIILFYGLNNVAFIGSNLWLSAWTSDSDNLNGTNNSSSHRDMRIGVFGALGLAQGICLLISTLWSIYACRNASKALHGQLLTNILRAPMRFFDTTPTGRIVNRFSGDISTVDDLLPQTLRSWMMCFFGIAGTLVMICMATPVFAIIIIPLSILYISVQVFYVATSRQLRRLDSVTKSPIYSHFSETVTGLPIIRAFEHQQRFLAWNEKQIDINQKCVFSWITSNRWLAIRLELVGNLVVFCSALLLVIYRKTLTGDVVGFVLSNALNITQTLNWLVRMTSEAETNIVAVERISEYINVENEAPWVTDKRPPADWPRHGEIQFNNYQVRYRPELDLVLKGITCNIKSGEKVGVVGRTGAGKSSLTNCLFRILESAGGQIIIDGIDVASIGLHDLRERLTIIPQDPILFSGSLRMNLDPFNKYSDEEVWRALELAHLRSFVSGLQLGLLSEVTEGGDNLSIGQRQLLCLGRAVLRKSKILVLDEATAAVDLETDSLIQTTIRKEFSQCTVITIAHRLHTIMDSDKIMVLDNGKIVEYGSPEELLSNRGSFYLMAKEAGIENVNHTEL,Km,0.175 µM
